The nanobody polyreactivity screen of Harvey et al. (2022)

Assay: yeast display, Sf9 membrane polyspecificity reagent, FACS + sequencing; frameworks hold sequencing errors
Procedure, shortened: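 Nanobodies from a synthetic yeast display library (Saccharomyces cerevisiae BJ5465), induced 36–48 hours with galactose, were stained 1 hour at 4 °C with 10% biotinylated, detergent-solubilized Sf9 membrane reagent, enriched on streptavidin microbeads, then FACS-sorted. Anti-HA (expression) and streptavidin (reagent binding) fluorescence set low and high (top ~1%) gates. Polyreactivity labels come from the gate of origin. Genes were colony-PCR amplified, MiSeq 2 × 250 sequenced and filtered by CDR length.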

| Sequence | polyreactivity (PSR sort gate) |
| --- | --- |
| QVQLVESGGGLVQAGGSLRLSCAASGRIFRFYAMGWYRQAPGKERELVASISSTGGSTYYADSVKGRFTISRDNAKNTVYLQMNSLKPEDTAVYYCNTVYGYVTTYGYWGQGTQVTVSS | high polyreactivity |
| QVQLVESGGGLVQAGGSLRLSCAASGRIFRFYVMGWYRQAPGKERELVAAISDSSPSTYYADSVKGRFTISRDNAKKTVYLQMNSLKPEDTAVYYCAARYPPYWSYDYDYWGQGTQVTVSS | low polyreactivity |
| QVQLVESGGGLVQAGGSLRLSCAASGRIFRGNAMGWYRQAPGKERQLVADINRSGGSTYYADSVKGRFTISRDNAKNTVYLQMNSLKPEDTAVYYCNAKYRVPYAVGGDYGYWGQGTQVTVSS | high polyreactivity |
| QVQLVESGGGLVQAGGSLRLSCAASGRIFRGNTMGWYRQAPGKERELVAAITRGGSTSYADSVKGRFTISRDNAKNTVNLQMNSLKPEDTAVYYCATRTHGEGTRRDSWGQGTQVTVSS | low polyreactivity |
| QVQLVESGGGLVQAGGSLRLSCAASGRIFRGNTMGWYRQAPGKERELVATINGRGGSTYYADSVKGRFTISRDNAKNTVYLQMNSLKPVDTAVYYCAARRGYPRFEYWGQGTQVTVSS | high polyreactivity |
| QVQLVESGGGLVQAGGSLRLSCAASGRIFRGYAMGWSRQAPGKERELVAAITSRGGSTYADSVKGRFTISRDNAKNTVYLQMNSLKPEDTAVYYCNAGYRADSSKLVFRGYPRYDYWGQGTQVTVSS | low polyreactivity |
| QVQLVESGGGLVQAGGSLRLSCAASGRIFRGYAMGWYRQAPGKEREFVAAITKNGGSTYYADSVKGRFTISRDNAKNTVYLQMNSLKPEDTAVYYCAAGGPSTLDDYWGQGTQVTVSS | low polyreactivity |
| QVQLVESGGGLVQAGGSLRLSCAASGRIFRGYAMGWYRQAPGKEREFVADITRSGGSTYYADSVKGRFTISRDNAKNTVYLQMNSLKPEDTAVYYCAREWYQYSPYHRFDYWGQGTQVTVSS | high polyreactivity |
| QVQLVESGGGLVQAGGSLRLSCAASGRIFRGYAMGWYRQAPGKERELVAAISYSGGTTYYADSVKGRFTISRDNAKNTVYLQMNSLKPEDTAVYYCNVDADYESQWLSVGYDYWGQGTQVTVSS | low polyreactivity |
| QVQLVESGGGLVQAGGSLRLSCAASGRIFRGYAMGWYRQAPGKERELVAAITKRGGSTYYADSVKGRFTISRDNAKNTVYFQMNSLKPEDTAVYYCAAYLPGWELREYGYWGQGTQVTVSS | high polyreactivity |
| QVQLVESGGGLVQAGGSLRLSCAASGRIFRGYAMGWYRQAPGKERELVAGISSGDNTYYADSVKGRFTISRDNAKNTVYLQMNSLKPEDTAVYYCNADHVYAVDYDYWGQGTQVTVSS | low polyreactivity |
| QVQLVESGGGLVQAGGSLRLSCAASGRIFRGYGMGWYRQAPGKERELVAAITSRGGSTYYADSVKGRFTISRDNAKYTVYLQMNSLKPEDTAVYYCNRDFNHRPLQSPKRPPKLGYWGQGTQVTVSS | high polyreactivity |
| QVQLVESGGGLVQAGGSLRLSCAASGRIFRGYTMGWYRQAPGKEREFVAAITANGGRTYYADSVKGRFTISRDNAKNTVYLKMNSLKPEDTAVYYCNARTYTYRGSFDYWVQGTQVTVSS | high polyreactivity |
| QVQLVESGGGLVQAGGSLRLSCAASGRIFRHKTLGWYRQAPGKEREMVAGITASGGDTYYADSVKGRFTISRDNAKNTVYLQMNSLKPEDTAVYYCATSQYGYRSWPGLYYWGQGTQVTVSS | low polyreactivity |
| QVQLVESGGGLVQAGGSLRLSCAASGRIFRINAMGWYRPAPGKERELVAAITRGGSTNYADSVKGRFTISRDNAKNTVYLQMNSLKPEDTAVYYCAADVSTYYYPGWFKLYLFDYWGQGTQVTVSS | high polyreactivity |
| QVQLVESGGGLVQAGGSLRLSCAASGRIFRKNVMGWYRQAPGKERELVATIRTGGTTNYADSVKGRFTISRDNAKNTVYLQMNSLKPEDTAVYYCAADRGGRAGFDYWGQGTQVTVSS | high polyreactivity |
| QVQLVESGGGLVQAGGSLRLSCAASGRIFRLNAMGWYRQAPGKERELVAAITVSDSSTYADSVKGRFTISRDNAKNTVYLQMNSLKPEDTAVYYCNRDTYTEYAHSWRGWSVIFDYWGQGTQVTVSS | high polyreactivity |
